{"source": "patent US20110262464A1", "about": "“Compositions, Kits, and Methods for the Diagnosis, Prognosis, and Monitoring of Cancer Using GOLPH3” (DANAFARBER CANCER INSTITUTE, INC., priority 2008, published 2011)", "molecules": {"B1": {"name": "EGF: epidermal growth factor (Invitrogen), 100 ng/ml for stimulation assays (protein, UniProt P01133 23-1207, looked up)", "Pro-epidermal growth factor": "PQHWSCPEGTLAGNGNSTCVGPAPFLIFSHGNSIFRIDTEGTNYEQLVVDAGVSVIMDFHYNEKRIYWVDLERQLLQRVFLNGSRQERVCNIEKNVSGMAINWINEEVIWSNQQEGIITVTDMKGNNSHILLSALKYPANVAVDPVERFIFWSSEVAGSLYRADLDGVGVKALLETSEKITAVSLDVLDKRLFWIQYNREGSNSLICSCDYDGGSVHISKHPTQHNLFAMSLFGDRIFYSTWKMKTIWIANKHTGKDMVRINLHSSFVPLGELKVVHPLAQPKAEDDTWEPEQKLCKLRKGNCSSTVCGQDLQSHLCMCAEGYALSRDRKYCEDVNECAFWNHGCTLGCKNTPGSYYCTCPVGFVLLPDGKRCHQLVSCPRNVSECSHDCVLTSEGPLCFCPEGSVLERDGKTCSGCSSPDNGGCSQLCVPLSPVSWECDCFPGYDLQLDEKSCAASGPQPFLLFANSQDIRHMHFDGTDYGTLLSQQMGMVYALDHDPVENKIYFAHTALKWIERANMDGSQRERLIEEGVDVPEGLAVDWIGRRFYWTDRGKSLIGRSDLNGKRSKIITKENISQPRGIAVHPMAKRLFWTDTGINPRIESSSLQGLGRLVIASSDLIWPSGITIDFLTDKLYWCDAKQSVIEMANLDGSKRRRLTQNDVGHPFAVAVFEDYVWFSDWAMPSVMRVNKRTGKDRVRLQGSMLKPSSLVVVHPLAKPGADPCLYQNGGCEHICKKRLGTAWCSCREGFMKASDGKTCLALDGHQLLAGGEVDLKNQVTPLDILSKTRVSEDNITESQHMLVAEIMVSDQDDCAPVGCSMYARCISEGEDATCQCLKGFAGDGKLCSDIDECEMGVPVCPPASSKCINTEGGYVCRCSEGYQGDGIHCLDIDECQLGEHSCGENASCTNTEGGYTCMCAGRLSEPGLICPDSTPPPHLREDDHHYSVRNSDSECPLSHDGYCLHDGVCMYIEALDKYACNCVVGYIGERCQYRDLKWWELRHAGHGQQQKVIVVAVCVVVLVMLLLLSLWGAHYYRTQKLLSKNPKNPYEESSRDVRSRRPADTEDGMSSCPQPWFVVIKEHQDLKNGGQPVAGEDGQAADGSMQPTSWRQEPQLCGMGTEQGCWIPVSSDKGSCPQVMERSFHMPSYGTQTLEGGVEKPHSLLSANPLWQQRALDPPHQMELTQ", "modifications": "Pro-epidermal growth factor", "notes": "epidermal growth factor (Invitrogen), 100 ng/ml for stimulation assays"}}, "tested_on": "GOLPH3 localization at the Golgi in A549 cells", "experiment": "Immunofluorescence of GOLPH3 localization", "format": "cell-based, human", "details": "A549 treated with EGF at specific time points", "method": "For immunofluorescence studies, cells were cultured on cover slips, followed by fixation for 15 min at RT in 4% paraformaldehyde in PBS, permeabilization for 10 min RT in 0.1% Triton X-100/PBS and blocking 1 hr RT in 10% goat or donkey serum/PBS. Slides were incubated 1 hr RT with the following antibodies: mouse anti-HA (1:100, Cell Signaling); rabbit anti-TGN46 (1:500; Abcam), goat anti-VPS35 (1:200; Abcam) and mouse anti-GOLPH3 (1:300). Slides were stained for 1 hour RT with the corresponding Alexa Flour secondary antibodies (Invitrogen). Cover slips were stained with DAPI (Sigma) and mounted with mounting medium. Microscopic images were obtained with a Nikon inverted Ti microscope equipped with Yokogawa spinning disk confocal/TIRF system and a Hamamatsu Orca ER firewire digital CCD camera using constant exposure times for each channel in individual experiments. Images were compiled and false-colored with Adobe Photoshop using identical settings for each color. Magnification is 100× unless otherwise indicated.\nIn order to determine whether or not ARF4 might regulate GOLPH3 localization at the Golgi apparatus, ARF4 siRNA were transfected into A549 cells."}
{"molecule": "B1", "values": [{"measurement": "GOLPH3 localization at the Golgi", "result": "redistribution of GOLPH3 from the Golgi"}]}
